# Measurements from PMC11876735 (Journal of Nuclear Medicine, 2025).
# Assays:
# Settings in all cases: in vivo
# [1] = set-up: species or system patients
# Source text: Safety data were collected as previously described ([5]).
# [2] = test system: midgut neuroendocrine tumors; set-up: species or system patients
# Experimental: The best tumor size change from baseline was assessed in individual lesions with dosimetric estimations. Tumor size was assessed by CT using 2 dimensions (longest [L] and perpendicular [W]) for each tumor per time point. Size change was based on the ratio of tumor area (L × W) at measured times (Tt) to tumor area at baseline (Tbl) and presented as a percentage where percentage tumor size change was ((Tt/Tbl) − 1) × 100%. Positive values indicate size growth, and negative values represent size reduction. Analyses were repeated using 1 dimension (short axis for lymph node lesions and long axis for other lesions). Tumor measurements were performed at 2–7 time points at 12-wk intervals until 72 wk after the first administration. […] However, the timings of dosimetry assessments were not the same for all lesions. Lesion uptake was assumed to be proportional to mass, resulting in a constant absorbed dose at all cycles for an equivalent injected activity. The cumulative absorbed dose was calculated for each target lesion. The correlation between tumor absorbed dose and effect was assessed by plotting the best percentage tumor size change from baseline versus the tumor cumulative absorbed dose.
# [3] = set-up: species or system patients; remark: listed apart in the source
# Experimental: Dosimetry assessments were performed using planar scintigraphy methodology routinely used at the time the study was conducted ([9],[10]). […] The geometric mean between the anterior and posterior images at each time point was calculated ([11]). Source organ radioactivity was determined at each time point, and cumulative activities were calculated ([12]). Absorbed dose values in target organs were calculated using time-integrated activity coefficients ([13]) of source organs using OLINDA/EXM version 1.0 (Hermes Medical Solutions) ([14]). A blood-based model was used to derive the cumulative activity in the red marrow and the corresponding absorbed dose ([15],[16]).
# [4] = test system: midgut neuroendocrine tumors; set-up: species or system patients; remark: listed apart in the source
# Source text: For tumor dosimetry, baseline scintigraphy was used to select tumors that were easily delineated on imaging. Tumor doses were derived using the sphere model of OLINDA/EXM version 1.0 ([14]). The ^177Lu dose factor values were interpolated for each lesion on the basis of its mass.
compound,measurement,setting,value
"C[C@@H](O)[C@H](NC(=O)[C@@H]1CSSC[C@H](NC(=O)[C@@H](Cc2ccccc2)NC(=O)CN2CCN(CC(=O)O)CCN(CC(=O)O)CCN(CC(=O)O)CC2)C(=O)N[C@@H](Cc2ccc(O)cc2)C(=O)N[C@H](Cc2c[nH]c3ccccc23)C(=O)N[C@@H](CCCCN)C(=O)N[C@@H]([C@@H](C)O)C(=O)N1)C(=O)O [^177Lu-DOTATATE, [^177Lu]Lu-DOTATATE, metal not drawn]",Acute hematologic toxicity grade,[1],mild or moderate (grade 1 or 2)
same,Patients with grade 4 lymphopenia during treatment (acute toxicity),[1],20%
same,Patients with transient grade 3 leukopenia during treatment,[1],10%
same,Severe renal toxicity,[1],no severe renal toxicity was observed
same,Cumulative absorbed dose range of lesions with approximately 50 Gy or greater,[2],50–789 Gy
same,Lesions that received a cumulative absorbed dose of approximately 50 Gy or greater,[2],73%
same,Overall effective half-life of the elimination phase,[3]; human,21 to 161 h
same,Cumulative red marrow dose,[3],3.2 Gy
same,Kidney doses in three substudy patients,[3],28-33 Gy
same,"Kidney injected activity profile, peak",[3],around 8%
same,"Absorbed dose for four 7.4 GBq (29.6 GBq in total), Median (range)",[4],"134 (7–2,218) Gy"
same,"Absorbed dose per unit activity, Median (range)",[4],4.5 (0.2–74.9) Gy/GBq
same,Lesion activity at 160 h,[4],less than 0.01 % of injected activity
same,Target lesions with cumulative absorbed dose of at least 50 Gy,[4],73.8%
same,Target lesions with cumulative absorbed dose of at least 100 Gy,[4],52.3%
same,"Absorbed dose for four 7.4 GBq (29.6 GBq in total), Mean (SD)",[4]; SD,224 (313) Gy
same,"Absorbed dose per unit activity, Mean (SD)",[4]; SD,7.6 (10.6) Gy/GBq
